Measurements taken from patent US20250376539A1 (KIRA PHARMACEUTICALS SUZHOU, published 2025).
Changes are numbered by the printed parent chain.

B1: 3.2pHGL (3.2 pH construct derived from a human germline framework sequence) (antibody, V domains shown)
VH: EVQLLESGGGLVQPGGSLRLSCAASGFTFRHYAMSWVRQAPGKGLEWVSLISGSGASTHYADSVKGRFTISRDNSKNTLYLQMNSLRAEDTAVYYCAKDSLAVAGSEYFQHWGQGTLVTVSS
VL: SYVLTQPPSVSVAPGQTARITCGHNYFGGKSVHWYQQKPGQAPVLVVYDDSDRPSGIPERFSGSNSGNTATLTISRVEAGDEADYYCQVYDTSSDHWVFGGGTKLTVL
notes: also called germlined 3.2 pH
B2: anti-C2 antibody 39.4 (antibody, IgG4, V domains shown)
VH: B1 VH with R19S, A23T, R30S, L50V, H59F, K76E, L101I
VL: SYVLTQAPSVSVAPGQTARITCGGNNIGGKTVHWYQQKPGQAPMLVVYDDSDRPSGIPERFSGSKSGNMAILTISRVEAGDEADYYCQLYDIYSDHWVFGGGTKLTVL
notes: Recombinant
B3: 3.2pHGL-IgG1-LALA-LS (3.2 pH-IgG1-LALA-LS derived from germline) (antibody, V domains shown)
VH: B1 VH
VL: SYVLTQPPSVSVAPGQTARITCGHNYFGGKSVHWYQQKPGQAPVLVVYDDSDRPSGIPERFSGSNSGNTATLTISRVEAGDEADYYCQVYDTSSDHWVFGGGTKLTVLG
notes: Heavy chain put together from the named parts
B4: anti-C2 antibody 48.14 (antibody, IgG4, V domains shown)
VH: B1 VH with T28K, R30S, H31Y, A56Y, H59Y, Y60F, L101I
VL: B1 VL with H24G, N25D, Y26N, F27I, N65D, R76W, Y90W, T92D
notes: Recombinant
B5: anti-C2 antibody 139.14 (antibody, IgG4, V domains shown)
VH: QVQLRESGPGLMKPSETLSLTCTVSGGSVSSGVYYWTWIRQPPGKGLEWIGSMFYSGNADYNPSLKSRVTISVDTSKNQFSLRLNSVSAADMAVYYCARGYASGWSYYFDYWGQATLVTVSS
VL: SSELTQDPTVSVALGQTVRITCQGDSLRTYYASWYQQKPGQAPVLVLYGKNNRPSGIPDRFSGSSSGNTASLTITGAQAEDEADYYCNSRYSSGTHVVFGGGTKLTVL
notes: Recombinant
B6: anti-C2 antibody 59.45 (antibody, IgG4, V domains shown)
VH: QLQLQESGPGLVKTSETLSLTCTVSGGSITSGVYYWGWIRQPPGKGLEWIGSIYHGGNTYNNPSLKSRVTIFIDTSKNQFSLKLSSVTAADTAVYYCAEGVSSGWSYYFDYWGQGTLVTVSS
VL: SSELTQDPAVSVALGQTVRITCQGDSLRRFYASWYQQKPGQAPVLVGYGKNNRPSGIPDRFSGSTSGNAASLTITGSQAEDEADYYCNSRDSSGDHLIFGGGTKLTVL
notes: Recombinant
B7: anti-C2 antibody 34.5 (antibody, IgG4, V domains shown)
VH: QVQLQESGPGLVKPSQTLSLTCTVSGGSISRGGHQWTWIRQHPGKGLEWIGYIHHSGSTYYNPSLNDRLTILVDTPKNQFSLKLSSVTAADTAVYYCARWNLGSYGDYWGQGTLVTVSS
VL: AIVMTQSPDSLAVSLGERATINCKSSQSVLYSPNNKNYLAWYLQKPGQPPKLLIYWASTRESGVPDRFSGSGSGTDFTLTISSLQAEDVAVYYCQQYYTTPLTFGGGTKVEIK
notes: Recombinant
B8: anti-C2 antibody 199.1 (antibody, IgG4, V domains shown)
VH: B7 VH with T37S, H42N, G44E, D67N
VL: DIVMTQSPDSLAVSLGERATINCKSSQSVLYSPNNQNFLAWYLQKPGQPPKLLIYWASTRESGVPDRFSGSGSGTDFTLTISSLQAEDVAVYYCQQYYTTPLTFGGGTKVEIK
notes: Recombinant
B9: anti-C2 antibody 83.16 (antibody, IgG4, V domains shown)
VH: QLQLQESGPGLVKSSETLSLTCTVSGGPISSSSYYWGWIRQPPGKGLEWIGTIYYSGRTYYNPSLKSRGTISVGTSKNQFSLKLSSVTAADTAVFYCAGGVGVTWDYWGQGTLVTVSS
VL: SYDLSQPLSVSVALGQTARITCGGNDIESKNVHWYQQRPGQAPVLVIYRNSNRPSGIPERFSGSNSGNTATLTISRGQGGDEADYYCQVWDSSTVIFGGGTKLTVL
notes: Recombinant

How the values were obtained:
[1] = target: T1, recombinant human complement C2 (NP_000054.2), C-terminal 6His-tag, made in house (CHO cell expression) (human, UniProt P06681 21-752); assay: drawn kinetic table; method and antigen not printed on the sheet, legend paragraph 101 says only anti-C2 antibodies; human C2 taken from the context of Examples 5 and 10
T1 construct: a linker before the tag is not described; also called human C2; Human C2
T1 sequence: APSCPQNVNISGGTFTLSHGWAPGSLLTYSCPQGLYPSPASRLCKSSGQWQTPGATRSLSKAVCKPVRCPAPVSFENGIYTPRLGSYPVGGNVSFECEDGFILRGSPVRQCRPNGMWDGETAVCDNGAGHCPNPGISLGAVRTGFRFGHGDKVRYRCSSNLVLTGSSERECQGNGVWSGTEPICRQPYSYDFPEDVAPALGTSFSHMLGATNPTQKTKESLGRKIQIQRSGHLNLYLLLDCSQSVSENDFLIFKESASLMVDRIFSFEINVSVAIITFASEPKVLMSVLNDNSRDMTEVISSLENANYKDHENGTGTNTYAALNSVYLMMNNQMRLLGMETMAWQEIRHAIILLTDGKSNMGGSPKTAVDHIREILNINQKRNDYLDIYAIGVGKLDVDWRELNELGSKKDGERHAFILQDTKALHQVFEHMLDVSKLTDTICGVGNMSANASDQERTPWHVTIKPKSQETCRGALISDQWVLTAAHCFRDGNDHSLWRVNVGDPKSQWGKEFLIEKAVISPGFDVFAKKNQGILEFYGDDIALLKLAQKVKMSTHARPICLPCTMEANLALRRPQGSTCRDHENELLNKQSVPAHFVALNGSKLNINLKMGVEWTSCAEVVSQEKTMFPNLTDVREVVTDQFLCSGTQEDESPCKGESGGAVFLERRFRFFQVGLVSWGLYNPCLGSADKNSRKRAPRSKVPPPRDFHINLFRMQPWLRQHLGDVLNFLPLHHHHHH

[2] = target: T1, recombinant human complement C2 …; assay: ELISA
[3] = target: T2, recombinant cynomolgus (cyno) complement C2 (XP_005553508.1), C-terminal 6His-tag, made in house (CHO cell … (cynomolgus monkey (Macaca fascicularis), UniProt P06681 21-752 (human entry))); assay: ELISA
T2 construct: also called cyno C2; Cyno C2
T2 chain: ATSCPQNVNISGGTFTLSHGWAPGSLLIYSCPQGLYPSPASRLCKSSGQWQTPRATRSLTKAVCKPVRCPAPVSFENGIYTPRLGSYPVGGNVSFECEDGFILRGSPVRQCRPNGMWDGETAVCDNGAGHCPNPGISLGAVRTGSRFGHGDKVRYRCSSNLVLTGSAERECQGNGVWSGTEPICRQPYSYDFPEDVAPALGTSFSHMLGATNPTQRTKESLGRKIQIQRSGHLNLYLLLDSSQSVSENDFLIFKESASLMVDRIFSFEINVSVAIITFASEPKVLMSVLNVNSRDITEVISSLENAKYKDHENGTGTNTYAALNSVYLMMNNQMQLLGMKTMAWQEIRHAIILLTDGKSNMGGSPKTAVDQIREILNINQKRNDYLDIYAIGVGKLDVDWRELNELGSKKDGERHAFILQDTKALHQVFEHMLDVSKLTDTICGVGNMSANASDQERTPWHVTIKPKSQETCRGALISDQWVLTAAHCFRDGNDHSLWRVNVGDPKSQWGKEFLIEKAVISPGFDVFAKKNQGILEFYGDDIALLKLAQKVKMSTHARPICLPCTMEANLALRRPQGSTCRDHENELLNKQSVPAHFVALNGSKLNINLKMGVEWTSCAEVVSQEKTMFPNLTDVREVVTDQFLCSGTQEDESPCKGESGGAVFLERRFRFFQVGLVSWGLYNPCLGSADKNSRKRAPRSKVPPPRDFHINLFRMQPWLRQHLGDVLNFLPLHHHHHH

[4] = target: T3, recombinant cyno C2a, C-terminal 6His-tag, made in house (CHO cell expression) (cynomolgus monkey, UniProt P06681 244-752 (human entry)); assay: ELISA on cyno C2a, OD450nm against log Ab conc. (nmol/L)
T3 chain: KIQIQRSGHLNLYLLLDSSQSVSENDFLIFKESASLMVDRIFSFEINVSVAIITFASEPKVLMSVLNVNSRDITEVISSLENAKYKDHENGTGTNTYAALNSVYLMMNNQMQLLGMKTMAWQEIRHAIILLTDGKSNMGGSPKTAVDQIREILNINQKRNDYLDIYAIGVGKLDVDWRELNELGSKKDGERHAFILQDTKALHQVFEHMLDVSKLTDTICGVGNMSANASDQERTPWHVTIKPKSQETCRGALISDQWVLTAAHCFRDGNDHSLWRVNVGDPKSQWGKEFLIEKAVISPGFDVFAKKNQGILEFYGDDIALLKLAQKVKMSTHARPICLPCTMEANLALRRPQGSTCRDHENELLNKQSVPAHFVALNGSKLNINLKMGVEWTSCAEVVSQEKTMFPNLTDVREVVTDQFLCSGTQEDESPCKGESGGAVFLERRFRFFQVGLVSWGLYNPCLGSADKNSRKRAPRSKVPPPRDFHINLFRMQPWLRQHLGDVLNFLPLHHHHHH

[5] = target: T4, recombinant human C2a, C-terminal 6His-tag, made in house (CHO cell expression) (human, UniProt P06681 244-752); assay: ELISA on human C2a, OD450nm against log Ab conc. (nmol/L)
T4 sequence: T3 chain with S18C, V68D, I73M, K84N, Q112R, K117E, Q148H

[6] = target: T1, recombinant human complement C2 …; assay: kinetic binding measurement, table 'Human C2 binding affinity' with sensorgrams below it (assay not named on the sheet); lot 20211215P05
[7] = target: T1, recombinant human complement C2 …; assay: kinetic binding measurement, table 'Human C2 binding affinity' with sensorgrams below it (assay not named on the sheet); lot 20211228P03
[8] = target: T4, recombinant human C2a, C-terminal …; assay: ELISA
[9] = target: T3, recombinant cyno C2a, C-terminal …; assay: ELISA

| EC50 [2] [nM] | EC50 [3] [nM] | binding result [4] | binding result [5] | also measured | Binder |
| --- | --- | --- | --- | --- | --- |
|  |  |  |  | Kd [1]: 0.138 nM; koff [1]: 4.05e-05 s⁻¹; kon [1]: 294000 M⁻¹ s⁻¹ | B1 |
| 0.0576 | 0.0869 | no binding (tested: 100 nmol/L) | no binding (tested: 100 nmol/L) |  | B2 |
|  |  |  |  | Kd [6]: 0.149 nM; koff [6]: 4.58e-05 s⁻¹; kon [6]: 309000 M⁻¹ s⁻¹; Kd [7]: 0.101 nM; koff [7]: 3.33e-05 s⁻¹; kon [7]: 330000 M⁻¹ s⁻¹ | B3 |
| 0.0514 | 0.0682 | no binding (tested: 100 nmol/L) | no binding (tested: 100 nmol/L) |  | B4 |
| 0.0599 | 0.115 |  |  | EC50 [8]: 0.131 nM; EC50 [9]: 0.208 nM | B5 |
| 0.054 | 0.263 |  |  | EC50 [8]: 0.124 nM; EC50 [9]: 0.123 nM | B6 |
| 0.0512 | 0.0521 | no binding (tested: 100 nmol/L) | no binding (tested: 100 nmol/L) |  | B7 |
| 0.0479 | 0.05 | no binding (tested: 100 nmol/L) | no binding (tested: 100 nmol/L) |  | B8 |
| 0.0408 | 0.0397 | no binding (tested: 100 nmol/L) | no binding (tested: 100 nmol/L) |  | B9 |
